B1: GB1#-Cont.1d (designed binder)
chain: GPLGSTTYKLILNGKTLTGYTTAIAADAATAEIVLKQFANDNGIDGEWTYDDATKTFTVTE
B2: GB1#-T17A.1d (designed binder)
chain: B1 chain with T22A
B3: GB1#-D36V.1d (designed binder)
chain: B1 chain with D41V
B4: GB1#-T17V.1d (designed binder)
chain: B1 chain with T22V

Changes are numbered by the printed parent chain. Names may count otherwise. Bounds are passed on as bounds.

For one test, the target named is aTNF-Fab (Fab fragment of anti-human TNFα monoclonal IgG, generic name Infliximab, product name Remicade). Put plainly: SPR Biacore 3000, aTNF-Fab amine-coupled on CM5, peptide flowed, 25 °C, pH 7.4, 1:1 fit. In general terms: SPR reads the build-up and loss of mass on a sensor chip optically.
As to B1, the Ka is 2.45e+06 M⁻¹, the koff came to 0.017 s⁻¹ and the kon was 41700 M⁻¹ s⁻¹.

As to B2, the Ka was found to be 880000 M⁻¹, the koff was 0.0285 s⁻¹ and the kon was determined as 25000 M⁻¹ s⁻¹.

Molecule B3 gave a Ka of 510000 M⁻¹, a koff of 0.064 s⁻¹ and an association rate constant (kon) of 32800 M⁻¹ s⁻¹.

Molecule B4 showed a Ka of 570000 M⁻¹, a koff of 0.0335 s⁻¹ and a kon of 19100 M⁻¹ s⁻¹.

The next test shares this target. Put plainly: affinity constant KA for aTNF-Fab, summing up Table 2 (method not shown in the excerpt).
In turn, B2 returned a Ka of more than 500000 M⁻¹.

In the case of B3, the Ka was more than 500000 M⁻¹.

In the case of B4, the Ka is more than 500000 M⁻¹.

A further test shares this target. Put plainly: affinity chromatography on aTNF-Fab-immobilized column, linear pH gradient 5.5 to 2.5, pH at elution peak top.
B1 came in with a Dissociation pH of 2.6 pH.

Molecule B2 displayed a Dissociation pH of 2.85 pH.

B3: the Dissociation pH worked out at 3.4 pH.

Consider B4, for which the Dissociation pH was 3 pH.

The term koff denotes the first-order rate constant of dissociation. Low values mean a long-lived complex, high ones a short-lived complex. By kon is commonly meant the second-order rate constant of association. The low end stands for slow association, the high end for fast association.

Values taken from patent publication US20170355733A1.
